# In patent US12433934B2, “Methods and compositions for preventing and treating atherosclerosis and related diseases” (Shanghai Puyou Biomedical Co., Ltd., priority 2018, dated 2025):
# Entries after “also recorded” stand apart in the source; their conditions may differ.
# Assays:
# [1] = test system: human umbilical vein endothelial cells (HUVECs); experiment: Uptake of DiL-oxLDL by HUVEC cells (fluorescence microscope, flow cytometry); format: cell-based; conditions: 10 μg/ml DiL-oxLDL, 5 h
# Experimental: Experimental materials: sDSS1 protein, DiL-oxLDL (Thermo Fisher technology, Article No.: L34358), human umbilical vein endothelial cell (HUVEC) (PromoCell, Article No.: C-12200).
# Experimental method: HUVEC cells were inoculated into a 6-well plate with 300000 cells per well. After 24 h of adherence, 1.5 ml 10 μg/ml DiL-oxLDL was added, or 1.5 ml 10 μg/ml DiL-oxLDL was added together with 2 μg/ml, 5 μg/ml, 10 μg/ml or 20 μg/ml of the sDSS1 protein. After incubation for 5 h in an incubator, the fluorescence signal in the cells was observed by a fluorescence microscope. The cells were digested with trypsin to form single cells for detecting the fluorescence intensity via flow cytometry.
# [2] = Toxic reaction in animal experiments; format: in vivo
# Source text: The sDSS1 protein used in the following examples is produced and quality controlled by the company itself. Upon detection, the purity of the protein is more than 95%, and endotoxins (the content of endotoxins is less than 3 EU/mg protein) and other impurity residues meet the standards.
# LDL = experiment: Co-incubation with LDL, SDS-PAGE separation, Coomassie brilliant blue staining; format: binding; conditions: 12 h
# Experimental: (§1) Experimental materials: sDSS1 protein, sDSS1 mutant protein 1 (sDSS1-M1, SEQ ID NO: 15), sDSS1 mutant protein 2 (sDSS1-M2, SEQ ID NO: 16), oxidized low density lipoprotein (oxLDL) (Solarbio, Article No.: H7980); low density lipoprotein (LDL) (Solarbio, Article No.: H7960).
# (§2) Experimental method: 2 μg of oxLDL or LDL was mixed with 6 μg of sDSS1 protein or 10 μg of sDSS1 protein in a 1.5 ml EP tube in the presence of 20 mM sodium acetate/acetic acid buffer (pH 4.5) or 20 mM phosphate buffer (pH 7.2) respectively, and incubated at 37° C. for 12 h. A loading buffer was added in the incubated product and evenly mixed, and the obtained mixture was denatured at 100° C. for 10 min to prepare a loading sample. The resulting sample was subjected to electrophoretic separation via polyacrylamide gel electrophoresis (SDS-PAGE). After separation, the SDS-PAGE gel was stained with Coomassie brilliant blue to display protein strips. The sDSS1-M1 or sDSS1-M2 protein was respectively mixed and incubated with oxLDL, and treated in the same way. 15 μL of the sample was used for SDS-PAGE electrophoresis separation.
# Hep G2 cells = experiment: Uptake of DiL-oxLDL by Hep G2 cells (fluorescence microscope, flow cytometry); format: cell-based, human; conditions: 9 h
# Experimental: Materials: sDSS1 protein, DiL-oxLDL, DiL-LDL (ThermoFisher, L3482), human hepatoma cell Hep G2 (Cell Bank of Typical Culture Preservation Committee of Chinese Academy of Sciences, Catalog Number: SCSP-510).
# Experimental method: (1) When detecting the phagocytosis of oxLDL by Hep G2 cells, Hep G2 cells were inoculated into a 6-well plate with 250000 cells per well. After 12 h, all the cells were adhered. The old culture medium was discarded. 1.5 ml 10 μg/ml DiL-oxLDL was added, or 1.5 ml 10 μg/ml DiL-oxLDL was added together with 5 μg/ml and 50 μg/ml of the sDSS1 protein. After incubation for 9 h in the incubator, the fluorescence signal in the cells was observed by a fluorescence microscope. The cells were digested by trypsin to form single cells for detecting fluorescence intensity via flow cytometry. (2) When detecting the phagocytosis of LDL by Hep G2 cells, Hep G2 cells were inoculated into a 6-well plate with 250000 cells per well. After 12 h, all the cells were adhered. The old culture medium was discarded. 1.5 ml 10 μg/ml DiL-LDL was added, or 1.5 ml 10 μg/ml DiL-LDL was added together with 5 μg/ml and 50 μg/ml of the sDSS1 protein. After incubation for 10 h in the incubator, the fluorescence signal in the cells was observed by fluorescence microscope. The cells were digested by trypsin to form single cells for detecting fluorescence intensity via flow cytometry.
# ApoE−/− mice = experiment: Atherosclerotic plaques of the aorta (en face oil red O staining) in high-fat diet ApoE−/− mice; format: in vivo; conditions: 13 weeks
# Experimental: FIGS. 15-16. The sDSS1 protein inhibits the formation of atherosclerotic plaques in ApoE−/− mice. […] At the end of the injection, the aorta was dissected for oil red O staining, and the area of plaques was calculated.
# Experimental animals: ApoE−/− mice, 8-week-old, male, were purchased from Nanjing Biomedical Research Institute of Nanjing University. The experimental animals were housed in an animal room for one week before the experiment.
# Experimental method: ApoE−/− mice were fed with high-fat diet containing 0.25% cholesterol starting from the age of 9 weeks. From the 10th week of high-fat diet feeding, the mice were randomly divided into three groups according to the total cholesterol level, with 10 mice in each group. […] At the 22nd week of high-fat diet feeding, that is, the 13th week of administration, the animals were executed and dissected, and the whole aorta was separated. The separated aorta was stained with en face oil red O to evaluate the formation of atherosclerotic plaques.
# oxLDL = target: T1, oxLDL (Homo sapiens, UniProt P04114); experiment: Co-incubation with oxLDL, SDS-PAGE separation, Coomassie brilliant blue staining; format: binding
# T1 construct: purchased Solarbio H7980
# Experimental: as §1, §2
# [3] = test system: macrophages differentiated from monocyte THP-1; experiment: Phagocytosis of DiL-oxLDL by macrophages differentiated from THP-1 (fluorescence microscope, flow cytometry); format: cell-based, human; conditions: 10 μg/ml DiL-oxLDL, 5 h
# Experimental: Experimental materials: sDSS1 protein, DiL-oxLDL, phorbol ester (PMA, Sigma Aldrich, Article No.: P1585), human monocyte THP-1 (Cell Bank of Typical Culture Preservation Committee of Chinese Academy of Sciences, Catalog No.: SCSP-567).
# Experimental method: THP-1 cells were inoculated into a 6-well plate with 250000 cells per well, and the culture solution contained 100 ng/mL PMA. After being activated by PMA for 48 h, the cells were cultured in a fresh culture medium for 4 days to facilitate cell adhesion. The old culture medium was discarded. 1.5 ml 10 μg/ml DiL-oxLDL was added, or 1.5 ml 10 μg/ml DiL-oxLDL was added together with 2 μg/ml, 5 μg/ml, 10 μg/ml, or 20 μg/ml of the sDSS1 protein. After incubation for 5 h in an incubator, the fluorescence signal in the cells was observed by a fluorescence microscope. The cells were digested by trypsin to form single cells for detecting fluorescence intensity via flow cytometry.
# T1 sequence (P04114 28-4563): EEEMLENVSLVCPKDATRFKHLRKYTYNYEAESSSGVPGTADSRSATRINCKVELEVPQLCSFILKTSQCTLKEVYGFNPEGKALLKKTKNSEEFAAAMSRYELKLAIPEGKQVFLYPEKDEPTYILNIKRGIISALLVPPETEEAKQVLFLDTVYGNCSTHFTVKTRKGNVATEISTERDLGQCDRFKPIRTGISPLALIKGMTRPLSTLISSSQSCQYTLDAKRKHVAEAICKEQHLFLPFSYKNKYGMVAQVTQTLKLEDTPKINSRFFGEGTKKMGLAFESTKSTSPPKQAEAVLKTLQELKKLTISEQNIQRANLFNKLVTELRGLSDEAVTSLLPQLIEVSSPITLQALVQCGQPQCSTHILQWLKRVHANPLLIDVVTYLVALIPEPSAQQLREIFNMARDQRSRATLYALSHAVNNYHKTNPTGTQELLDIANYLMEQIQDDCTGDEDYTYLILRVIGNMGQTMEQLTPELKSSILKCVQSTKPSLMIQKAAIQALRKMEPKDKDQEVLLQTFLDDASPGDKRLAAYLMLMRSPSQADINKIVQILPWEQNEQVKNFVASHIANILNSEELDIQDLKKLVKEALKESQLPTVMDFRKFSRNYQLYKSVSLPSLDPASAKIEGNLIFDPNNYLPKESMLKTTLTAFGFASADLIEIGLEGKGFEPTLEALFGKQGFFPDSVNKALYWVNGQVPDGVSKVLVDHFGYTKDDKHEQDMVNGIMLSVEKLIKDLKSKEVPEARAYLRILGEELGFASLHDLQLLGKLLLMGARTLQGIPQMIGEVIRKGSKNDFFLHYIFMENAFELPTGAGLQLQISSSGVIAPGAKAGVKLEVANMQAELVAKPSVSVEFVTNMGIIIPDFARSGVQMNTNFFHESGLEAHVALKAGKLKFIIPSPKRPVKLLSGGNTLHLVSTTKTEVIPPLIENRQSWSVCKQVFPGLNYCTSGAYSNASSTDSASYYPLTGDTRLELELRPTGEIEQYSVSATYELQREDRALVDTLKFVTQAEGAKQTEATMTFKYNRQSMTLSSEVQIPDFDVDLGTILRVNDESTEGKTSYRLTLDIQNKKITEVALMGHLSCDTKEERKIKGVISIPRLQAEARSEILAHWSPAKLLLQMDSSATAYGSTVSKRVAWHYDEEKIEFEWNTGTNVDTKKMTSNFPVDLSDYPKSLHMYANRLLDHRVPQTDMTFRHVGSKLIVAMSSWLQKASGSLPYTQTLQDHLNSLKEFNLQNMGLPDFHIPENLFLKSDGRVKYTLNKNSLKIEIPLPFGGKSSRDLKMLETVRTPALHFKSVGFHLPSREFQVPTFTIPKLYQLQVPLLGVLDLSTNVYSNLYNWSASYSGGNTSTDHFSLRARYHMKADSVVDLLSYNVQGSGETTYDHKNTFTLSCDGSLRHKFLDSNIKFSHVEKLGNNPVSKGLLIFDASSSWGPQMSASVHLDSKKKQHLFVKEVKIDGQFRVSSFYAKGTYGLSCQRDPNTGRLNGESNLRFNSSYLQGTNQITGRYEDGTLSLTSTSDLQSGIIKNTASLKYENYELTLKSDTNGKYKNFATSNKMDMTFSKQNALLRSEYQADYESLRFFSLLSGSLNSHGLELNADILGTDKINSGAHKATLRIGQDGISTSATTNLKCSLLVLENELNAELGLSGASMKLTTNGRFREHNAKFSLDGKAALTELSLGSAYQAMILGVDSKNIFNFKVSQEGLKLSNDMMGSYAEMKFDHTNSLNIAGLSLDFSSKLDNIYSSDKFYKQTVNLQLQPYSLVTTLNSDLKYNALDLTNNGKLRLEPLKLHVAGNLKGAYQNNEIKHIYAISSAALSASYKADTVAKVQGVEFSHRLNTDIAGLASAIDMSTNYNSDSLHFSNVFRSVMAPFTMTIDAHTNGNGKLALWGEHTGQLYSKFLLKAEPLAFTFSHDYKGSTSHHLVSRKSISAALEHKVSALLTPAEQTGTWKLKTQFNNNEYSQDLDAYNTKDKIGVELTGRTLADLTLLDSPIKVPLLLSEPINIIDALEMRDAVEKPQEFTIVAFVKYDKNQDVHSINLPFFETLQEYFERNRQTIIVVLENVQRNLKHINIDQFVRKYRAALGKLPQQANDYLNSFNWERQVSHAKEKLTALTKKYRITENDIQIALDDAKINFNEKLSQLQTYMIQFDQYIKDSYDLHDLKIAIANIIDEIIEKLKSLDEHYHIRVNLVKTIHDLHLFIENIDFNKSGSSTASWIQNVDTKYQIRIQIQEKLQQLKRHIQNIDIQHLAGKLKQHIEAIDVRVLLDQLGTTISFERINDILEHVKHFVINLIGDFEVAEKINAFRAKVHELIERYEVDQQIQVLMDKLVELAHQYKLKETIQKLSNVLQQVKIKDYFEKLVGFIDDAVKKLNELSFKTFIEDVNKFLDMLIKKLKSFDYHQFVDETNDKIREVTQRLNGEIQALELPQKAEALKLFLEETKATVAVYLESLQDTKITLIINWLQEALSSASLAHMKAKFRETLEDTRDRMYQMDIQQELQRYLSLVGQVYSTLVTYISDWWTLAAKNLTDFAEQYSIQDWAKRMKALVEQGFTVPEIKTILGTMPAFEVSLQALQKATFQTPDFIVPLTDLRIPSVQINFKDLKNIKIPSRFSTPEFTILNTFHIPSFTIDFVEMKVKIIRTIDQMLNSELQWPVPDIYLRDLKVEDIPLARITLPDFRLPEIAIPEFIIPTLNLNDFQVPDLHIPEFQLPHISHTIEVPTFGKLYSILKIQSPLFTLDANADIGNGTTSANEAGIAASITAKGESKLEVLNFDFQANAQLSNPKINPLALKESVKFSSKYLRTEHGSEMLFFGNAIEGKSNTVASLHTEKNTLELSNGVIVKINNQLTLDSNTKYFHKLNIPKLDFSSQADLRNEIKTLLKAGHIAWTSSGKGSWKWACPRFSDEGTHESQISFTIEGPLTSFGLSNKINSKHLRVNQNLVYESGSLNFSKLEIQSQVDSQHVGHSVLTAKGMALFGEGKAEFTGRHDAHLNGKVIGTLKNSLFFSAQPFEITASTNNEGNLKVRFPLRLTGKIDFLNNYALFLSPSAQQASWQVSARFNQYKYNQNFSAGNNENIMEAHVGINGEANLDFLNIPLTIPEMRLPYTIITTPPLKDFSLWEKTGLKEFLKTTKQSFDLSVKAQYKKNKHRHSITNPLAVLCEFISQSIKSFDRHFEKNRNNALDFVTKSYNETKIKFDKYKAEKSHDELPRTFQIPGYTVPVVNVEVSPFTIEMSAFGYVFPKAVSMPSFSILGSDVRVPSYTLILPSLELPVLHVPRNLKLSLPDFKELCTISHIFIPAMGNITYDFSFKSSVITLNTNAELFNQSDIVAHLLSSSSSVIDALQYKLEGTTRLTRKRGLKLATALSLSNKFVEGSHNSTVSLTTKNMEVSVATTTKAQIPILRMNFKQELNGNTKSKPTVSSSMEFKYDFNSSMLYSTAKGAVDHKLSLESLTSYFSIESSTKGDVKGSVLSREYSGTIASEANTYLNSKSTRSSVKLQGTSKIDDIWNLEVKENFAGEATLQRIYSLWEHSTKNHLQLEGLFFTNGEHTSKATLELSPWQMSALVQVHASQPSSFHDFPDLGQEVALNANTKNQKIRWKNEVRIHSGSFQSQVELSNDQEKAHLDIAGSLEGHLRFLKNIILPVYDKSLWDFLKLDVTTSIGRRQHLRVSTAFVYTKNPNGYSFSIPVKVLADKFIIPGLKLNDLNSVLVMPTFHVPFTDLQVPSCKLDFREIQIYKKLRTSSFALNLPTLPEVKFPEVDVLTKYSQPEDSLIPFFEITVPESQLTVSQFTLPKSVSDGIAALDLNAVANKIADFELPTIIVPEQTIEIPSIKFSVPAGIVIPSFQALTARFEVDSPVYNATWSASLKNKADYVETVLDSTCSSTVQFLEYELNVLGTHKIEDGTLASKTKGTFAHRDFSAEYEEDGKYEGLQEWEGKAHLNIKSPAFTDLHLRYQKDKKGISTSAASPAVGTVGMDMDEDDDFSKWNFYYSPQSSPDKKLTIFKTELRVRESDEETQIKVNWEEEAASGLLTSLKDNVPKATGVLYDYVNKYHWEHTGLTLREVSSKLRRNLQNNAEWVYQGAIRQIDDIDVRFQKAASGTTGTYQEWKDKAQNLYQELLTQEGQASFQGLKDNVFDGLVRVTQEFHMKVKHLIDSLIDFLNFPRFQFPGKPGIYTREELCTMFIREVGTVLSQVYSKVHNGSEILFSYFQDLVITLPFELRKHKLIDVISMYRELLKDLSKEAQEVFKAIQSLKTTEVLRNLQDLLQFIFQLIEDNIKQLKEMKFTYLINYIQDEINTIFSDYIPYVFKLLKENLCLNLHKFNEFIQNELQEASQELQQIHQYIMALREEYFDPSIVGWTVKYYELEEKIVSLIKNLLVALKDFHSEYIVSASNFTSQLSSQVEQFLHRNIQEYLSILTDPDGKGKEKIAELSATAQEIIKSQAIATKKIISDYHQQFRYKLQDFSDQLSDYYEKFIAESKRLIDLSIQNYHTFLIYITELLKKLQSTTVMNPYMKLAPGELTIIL
molecule,measurement,setting,value
"sDSS1 protein: sDSS1 protein produced by the company itself, purity more than 95%; sequence of human sDSS1 protein is SEQ ID NO:1 (protein, listed as Homo sapiens) MSEKKQPVDLGLLEEDDEFEEFPAEDWAGLDEDEDAHVWEDNWDDDNVEDDFSNQLRATVLLMILVCETPYGCYVLHQKGRMCSAFLCC",Fluorescence within HUVEC cells (flow cytometry),[1]; 2 μg/ml sDSS1 protein,significantly weakened
same,Uptake of oxLDL by HUVEC cells (flow cytometry statistics),[1]; 2 μg/ml sDSS1 protein,reduced by half
same,Fluorescence within HUVEC cells (flow cytometry),[1]; 10 μg/ml sDSS1 protein,significantly weakened
same,Concentration dependence of the reduction of fluorescence / oxLDL uptake in HUVEC cells,"[1]; 2, 5, 10, 20 μg/ml sDSS1 protein",concentration-dependent; also recorded: gradually weakened; also recorded: obviously dose-dependent
same,Animal toxic reaction,[2],without causing obvious animal toxic reaction
same,Interaction with LDL (complex on SDS-PAGE gel),"LDL; phosphate buffer pH 7.2, 37° C.",interacted with the sDSS1 protein; also recorded: resulted in interactions
same,Interaction with LDL (complex on SDS-PAGE gel),"LDL; sodium acetate/acetic acid buffer pH 4.5, 37° C.",interacted with the sDSS1 protein; also recorded: resulted in interactions
same,"DiL fluorescence level within Hep G2 cells, DiL-oxLDL (flow cytometry)","Hep G2 cells; 5 μg/ml sDSS1, 10 μg/ml DiL-oxLDL",does not significantly affect; also recorded: did not significantly affect
same,"DiL signal intensity in Hep G2 cells, DiL-oxLDL (flow cytometry)","Hep G2 cells; 50 μg/ml sDSS1 protein, 10 μg/ml DiL-oxLDL",significantly increase
same,Area of atherosclerotic plaques (en face oil red O) vs model group,"ApoE−/− mice; sDSS1 3 mg/kg intraperitoneal once a day, high-fat diet",significantly reduced
same,Plaque area ratio (oil red O stained area / total aortic area) vs model group,"ApoE−/− mice; sDSS1 3 mg/kg intraperitoneal once a day, **P<0.01",significantly smaller
same,"Plaque area ratio, sDSS1 protein group vs positive drug group",ApoE−/− mice; sDSS1 3 mg/kg vs ATV 40 mg/kg,no significant difference
same,Effect on plaque area in certain areas of the aorta vs positive drug,ApoE−/− mice; sDSS1 3 mpk vs ATV 40 mpk,even better
same,Interaction with oxLDL (complex on SDS-PAGE gel),oxLDL; phosphate buffer pH 7.2,interacted with the sDSS1 protein; also recorded: resulted in interactions
same,Interaction with oxLDL (complex on SDS-PAGE gel),"oxLDL; sodium acetate/acetic acid buffer pH 4.5, 37° C., 12 h",interacted with the sDSS1 protein; also recorded: resulted in interactions
same,Macrophages having fluorescence (flow cytometry),[3]; 2 μg/ml sDSS1 protein,not detected; also recorded: basically didn't appear
same,Macrophages having fluorescence (flow cytometry),[3]; 10 μg/ml sDSS1 protein,not detected; also recorded: basically didn't appear
same,Fluorescence in macrophages (fluorescence microscope),[3]; sDSS1 protein added (2 and 10 μg/ml),"no obvious fluorescence was observed in the cells, or the fluorescence was very weak; also recorded: basically no obvious fluorescent signals were observed"
